Earlier results, collected in publication PMC10532153, “Interactions of the N- and C-Terminal SH3 Domains of Drosophila Drk with the Proline-Rich Peptides from Sos and Dos” (International Journal of Molecular Sciences, 2023).

Target: T1, Drk-CSH3 (Drosophila melanogaster, UniProt Q08012)
T1 construct: its N- and C-terminal SH3 domains (Drk-NSH3 and Drk-CSH3, respectively); made in house
Settings: previous paper on Drk-CSH3; read-out: Kd for Drk-CSH3, nine-residue (“shorter”) Dos peptides
From the text: Table 1 The calculated dissociation constants (Kds) for Sos- and Dos-derived peptides.

T1 sequence (Q08012 152-211 limits assumed): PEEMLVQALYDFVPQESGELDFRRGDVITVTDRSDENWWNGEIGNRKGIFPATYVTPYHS

| Sequence | Kd [mM] |
| --- | --- |
| PPVNRKLKP [shorter Dos-S1] | ~1.4 |
| PSVDRKCKP [shorter Dos-S2] | ~4.8 |
